# According to paper PMC5773583, “Redundancy of protein disulfide isomerases in the catalysis of the inactivating disulfide switch in A Disintegrin and Metalloprotease 17” (Scientific Reports, 2018):
# Bridge positions count the residues as written; N and C are the ends.
# T1: protein disulfide isomerase PDIA3 (human, UniProt P30101 25-505)
# T1 construct: mature human PDIA3 (MW 56.6 kDa), cloned into pET28; Monomeric by SEC-MALS; also called Erp57
# T1 sequence (looked up): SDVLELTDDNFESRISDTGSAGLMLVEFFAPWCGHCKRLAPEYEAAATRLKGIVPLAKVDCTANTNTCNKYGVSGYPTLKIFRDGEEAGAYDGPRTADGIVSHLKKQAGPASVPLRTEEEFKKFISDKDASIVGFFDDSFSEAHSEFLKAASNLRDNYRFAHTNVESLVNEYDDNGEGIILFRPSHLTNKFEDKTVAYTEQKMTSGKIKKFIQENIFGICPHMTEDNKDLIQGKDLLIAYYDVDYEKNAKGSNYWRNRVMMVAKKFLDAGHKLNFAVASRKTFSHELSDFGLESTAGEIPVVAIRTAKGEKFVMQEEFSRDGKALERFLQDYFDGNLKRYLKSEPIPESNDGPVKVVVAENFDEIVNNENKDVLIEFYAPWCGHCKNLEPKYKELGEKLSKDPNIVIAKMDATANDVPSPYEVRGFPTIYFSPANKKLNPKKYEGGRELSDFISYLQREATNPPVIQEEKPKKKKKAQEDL
# T2: PDIA6 C58S TRAP mutant (human, UniProt Q15084 20-440, C58S)
# T2 construct: mature human PDIA6 with C58S (second cysteine of the CGHC motif of the a domain), in pET28
# T2 sequence (looked up): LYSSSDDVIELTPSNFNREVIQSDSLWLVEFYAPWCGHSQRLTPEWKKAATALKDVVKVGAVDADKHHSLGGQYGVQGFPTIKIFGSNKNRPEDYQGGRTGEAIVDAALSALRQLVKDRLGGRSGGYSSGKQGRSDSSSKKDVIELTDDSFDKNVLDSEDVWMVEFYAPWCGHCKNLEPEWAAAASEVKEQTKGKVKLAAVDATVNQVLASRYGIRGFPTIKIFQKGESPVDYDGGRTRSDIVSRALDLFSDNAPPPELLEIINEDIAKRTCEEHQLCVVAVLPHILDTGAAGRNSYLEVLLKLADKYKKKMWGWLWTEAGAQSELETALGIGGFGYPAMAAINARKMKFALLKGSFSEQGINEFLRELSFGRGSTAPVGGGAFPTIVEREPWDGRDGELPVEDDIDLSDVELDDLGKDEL
# T3: PDIA6 C193S TRAP mutant (human, UniProt Q15084 20-440, C193S)
# T3 construct: mature human PDIA6 with C193S (second cysteine of the CGHC motif of the a' domain), in pET28
# T3 sequence (looked up): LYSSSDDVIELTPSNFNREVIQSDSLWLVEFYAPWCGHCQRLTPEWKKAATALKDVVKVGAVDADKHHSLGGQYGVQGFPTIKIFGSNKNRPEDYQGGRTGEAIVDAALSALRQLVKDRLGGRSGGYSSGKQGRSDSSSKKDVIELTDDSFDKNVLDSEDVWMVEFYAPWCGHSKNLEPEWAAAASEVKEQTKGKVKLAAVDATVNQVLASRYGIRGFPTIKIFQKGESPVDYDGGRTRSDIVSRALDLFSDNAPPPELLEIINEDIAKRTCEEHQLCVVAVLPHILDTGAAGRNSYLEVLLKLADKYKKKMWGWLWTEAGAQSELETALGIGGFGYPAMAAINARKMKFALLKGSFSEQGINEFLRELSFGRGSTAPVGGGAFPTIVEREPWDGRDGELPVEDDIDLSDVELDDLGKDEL
# T4: PDIA6 double TRAP mutant (2 TRAP) C58S C193S (human, UniProt Q15084 20-440, C58S | C193S)
# T4 construct: mature human PDIA6 with C58S and C193S, in pET28; also called PDIA6 C58S C193S; PDIA6_2 TRAP
# T4 sequence (looked up): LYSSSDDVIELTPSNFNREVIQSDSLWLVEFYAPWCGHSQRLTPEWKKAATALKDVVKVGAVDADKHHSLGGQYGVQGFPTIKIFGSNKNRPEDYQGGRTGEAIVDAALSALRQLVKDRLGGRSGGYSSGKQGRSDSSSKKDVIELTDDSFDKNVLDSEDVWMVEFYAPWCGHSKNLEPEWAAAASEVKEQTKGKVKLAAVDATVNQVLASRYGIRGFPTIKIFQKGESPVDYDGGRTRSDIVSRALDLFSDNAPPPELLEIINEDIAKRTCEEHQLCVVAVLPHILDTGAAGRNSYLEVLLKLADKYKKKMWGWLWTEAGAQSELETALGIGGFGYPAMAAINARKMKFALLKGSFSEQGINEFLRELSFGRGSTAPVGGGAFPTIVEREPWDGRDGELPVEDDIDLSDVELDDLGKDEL
# T5: PDIA6 C55S C58S mutant (human, UniProt Q15084 20-440, C55S | C58S)
# T5 construct: mature human PDIA6 with both cysteines of the a domain exchanged (C55S, C58S), in pET28
# T5 sequence (looked up): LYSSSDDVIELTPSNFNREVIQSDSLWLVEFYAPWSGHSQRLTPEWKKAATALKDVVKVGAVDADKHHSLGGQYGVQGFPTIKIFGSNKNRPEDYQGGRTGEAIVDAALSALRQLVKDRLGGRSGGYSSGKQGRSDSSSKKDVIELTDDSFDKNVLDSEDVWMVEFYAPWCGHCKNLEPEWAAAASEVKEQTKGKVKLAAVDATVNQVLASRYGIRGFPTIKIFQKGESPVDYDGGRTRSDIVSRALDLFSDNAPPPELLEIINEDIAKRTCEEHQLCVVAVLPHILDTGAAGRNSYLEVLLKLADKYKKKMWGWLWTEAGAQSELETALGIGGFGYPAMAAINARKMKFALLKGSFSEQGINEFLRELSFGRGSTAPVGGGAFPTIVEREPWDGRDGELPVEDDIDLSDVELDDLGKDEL
# T6: PDIA6 inverse TRAP mutant C55S C190S (human, UniProt Q15084 20-440, C55S | C190S)
# T6 construct: mature human PDIA6 with the N-terminal cysteines of both CGHC motifs exchanged (C55S, C190S), in pET28; also called PDIA6 C55S C190S
# T6 sequence (looked up): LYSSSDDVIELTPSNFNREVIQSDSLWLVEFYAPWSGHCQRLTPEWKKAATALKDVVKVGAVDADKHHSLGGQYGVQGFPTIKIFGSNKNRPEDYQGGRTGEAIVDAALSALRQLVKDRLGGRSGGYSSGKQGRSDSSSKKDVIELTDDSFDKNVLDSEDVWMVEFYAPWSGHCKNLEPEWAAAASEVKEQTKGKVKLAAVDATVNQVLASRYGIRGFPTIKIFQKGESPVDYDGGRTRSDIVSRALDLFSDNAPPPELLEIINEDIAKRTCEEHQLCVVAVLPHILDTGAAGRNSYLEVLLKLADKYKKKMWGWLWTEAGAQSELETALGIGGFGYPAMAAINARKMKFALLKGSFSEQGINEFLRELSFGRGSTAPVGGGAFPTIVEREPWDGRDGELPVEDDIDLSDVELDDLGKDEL
# B1: protein disulfide isomerase PDIA6 (enzyme, human, UniProt Q15084 20-440, looked up)
# chain: LYSSSDDVIELTPSNFNREVIQSDSLWLVEFYAPWCGHCQRLTPEWKKAATALKDVVKVGAVDADKHHSLGGQYGVQGFPTIKIFGSNKNRPEDYQGGRTGEAIVDAALSALRQLVKDRLGGRSGGYSSGKQGRSDSSSKKDVIELTDDSFDKNVLDSEDVWMVEFYAPWCGHCKNLEPEWAAAASEVKEQTKGKVKLAAVDATVNQVLASRYGIRGFPTIKIFQKGESPVDYDGGRTRSDIVSRALDLFSDNAPPPELLEIINEDIAKRTCEEHQLCVVAVLPHILDTGAAGRNSYLEVLLKLADKYKKKMWGWLWTEAGAQSELETALGIGGFGYPAMAAINARKMKFALLKGSFSEQGINEFLRELSFGRGSTAPVGGGAFPTIVEREPWDGRDGELPVEDDIDLSDVELDDLGKDEL
# notes: mature human PDIA6 (MW 48.8 kDa), cloned into pET28; Dimer in solution by SEC-MALS; also called Erp5; wild-type PDIA6
# How the values were obtained:
# [1] = target: the molecule itself; assay: SEC-MALS; Superdex 200 10/300 GL, 0.5 ml/minute, PBS pH 7.4; 100–500 µg protein per analysis
# [2] = target: T7, protein disulfide isomerase PDIA1 (human, UniProt P07237 18-508); assay: MST; RED-NHS-labelled MPD constant at 20 nM, unlabelled PDI titrated (7.5 uM to 0.9537 nM, 1:2 series, 16 dilutions); PBS-P (PBS, 0.01% P20, pH 7.4), 25 °C; KD from the ligand-induced change of the initial fluorescence intensity; settings: both partners purified
# T7 construct: mature human PDIA1 (MW 57.6 kDa), cloned into pET28; Monomeric by SEC-MALS
# [3] = target: T1, protein disulfide isomerase PDIA3; assay: as above; settings: both partners purified
# [4] = target: B1; assay: as above; settings: both partners purified
# [5] = target: T2, PDIA6 C58S TRAP mutant; assay: as above; settings: both partners purified
# [6] = target: T3, PDIA6 C193S TRAP mutant; assay: as above; settings: both partners purified
# [7] = target: T4, PDIA6 double TRAP mutant (2 TRAP) C58S …; assay: as above; settings: both partners purified
# [8] = target: T5, PDIA6 C55S C58S mutant; assay: as above; settings: both partners purified
# [9] = target: T6, PDIA6 inverse TRAP mutant C55S C190S; assay: as above; settings: both partners purified
# T7 sequence (P07237 18-508): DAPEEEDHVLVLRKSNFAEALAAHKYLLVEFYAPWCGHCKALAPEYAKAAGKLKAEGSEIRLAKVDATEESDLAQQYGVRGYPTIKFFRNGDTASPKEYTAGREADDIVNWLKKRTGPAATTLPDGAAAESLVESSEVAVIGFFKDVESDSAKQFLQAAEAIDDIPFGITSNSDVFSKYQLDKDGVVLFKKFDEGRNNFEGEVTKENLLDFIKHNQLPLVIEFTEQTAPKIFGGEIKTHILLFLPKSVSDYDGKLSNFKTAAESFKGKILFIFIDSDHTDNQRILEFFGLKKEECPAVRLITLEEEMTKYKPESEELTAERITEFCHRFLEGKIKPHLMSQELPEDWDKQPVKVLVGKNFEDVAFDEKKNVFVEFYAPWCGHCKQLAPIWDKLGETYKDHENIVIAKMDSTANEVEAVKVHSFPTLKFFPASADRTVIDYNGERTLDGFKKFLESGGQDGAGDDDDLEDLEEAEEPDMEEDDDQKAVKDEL
Binder,stoichiometry N [1],Kd [2] [nM],Kd [3] [nM],Kd [4] [nM],Kd [5] [nM],Kd [6] [nM],Kd [7] [nM],Kd [8] [nM],Kd [9] [nM]
B1,2,–,–,–,–,–,–,–,–
"open membrane-proximal domain (opMPD) of A Disintegrin and Metalloprotease 17 (ADAM17) (domain or fragment, UniProt P78536 581-642, looked up, disulfide 20-50, 55-61; also: labelled on amines with RED-NHS dye, membrane-proximal domain of ADAM17, open isomer, recombinant, 9.9 kDa; also called open conformation of the MPD) FCEREQQLESCACNETDNSCKVCCRDLSGRCVPYVDAEQKNLFLRKGKPCTVGFCDMNGKCE",–,158,90,93,141,142,192,138,115
"closed membrane-proximal domain (clMPD) of A Disintegrin and Metalloprotease 17 (ADAM17) (domain or fragment, UniProt P78536 581-642, looked up, disulfide 20-55, 50-61; also: labelled on amines with RED-NHS dye, membrane-proximal domain of ADAM17, closed disulfide isomer; it is the disulfide isomer of m9 and probably carries the same tag; also called closed MPD; closed isoform) FCEREQQLESCACNETDNSCKVCCRDLSGRCVPYVDAEQKNLFLRKGKPCTVGFCDMNGKCE",–,211,55,61,113,91,151,191,116
